In patent US20120219559A1 (Johns Hopkins, published 2012):
Substitutions are numbered along the chain they refer to. One block for each molecule: values may come before it.

Key:
[1] = target: human CD28, full length, expressed on cells (CD28+293T cells) (human) (UniProt P10747); assay: cell-based or functional assay
[2] = target: T1, T61A; assay: flow cytometry on 293T cells expressing B7-H2-GFP mutants; normalised to wild type B7-H2 (100%) and vector control (0%)
T1 sequence (chain, by the resolver, C terminal GFP fusion, not carried in the letters): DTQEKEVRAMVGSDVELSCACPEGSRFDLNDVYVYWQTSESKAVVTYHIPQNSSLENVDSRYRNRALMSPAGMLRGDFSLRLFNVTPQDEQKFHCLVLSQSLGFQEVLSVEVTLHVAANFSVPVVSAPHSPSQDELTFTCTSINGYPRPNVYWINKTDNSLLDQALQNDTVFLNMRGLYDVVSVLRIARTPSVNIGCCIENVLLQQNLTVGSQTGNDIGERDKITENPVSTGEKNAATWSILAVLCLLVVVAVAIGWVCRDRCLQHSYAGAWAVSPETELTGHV

[3] = target: T2, B7-1; assay: CDS well image, 293T cells transfected with the mouse gene, stained with the mouse fusion protein
T2 chain: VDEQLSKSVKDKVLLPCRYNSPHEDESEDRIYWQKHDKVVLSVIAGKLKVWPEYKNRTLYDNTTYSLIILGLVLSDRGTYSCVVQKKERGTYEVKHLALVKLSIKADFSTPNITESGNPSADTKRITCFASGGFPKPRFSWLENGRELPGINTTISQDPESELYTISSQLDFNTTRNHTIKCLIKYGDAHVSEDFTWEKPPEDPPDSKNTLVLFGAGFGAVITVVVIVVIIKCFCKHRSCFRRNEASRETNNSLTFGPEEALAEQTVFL

[4] = target: T3, B7-2; assay: as above
T3 chain: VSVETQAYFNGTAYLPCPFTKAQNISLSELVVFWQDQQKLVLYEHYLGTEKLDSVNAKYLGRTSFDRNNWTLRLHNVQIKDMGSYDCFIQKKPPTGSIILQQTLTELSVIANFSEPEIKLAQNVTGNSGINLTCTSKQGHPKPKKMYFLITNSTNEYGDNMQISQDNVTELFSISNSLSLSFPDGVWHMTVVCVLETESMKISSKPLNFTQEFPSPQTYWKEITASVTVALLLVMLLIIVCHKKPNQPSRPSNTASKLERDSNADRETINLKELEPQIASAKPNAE

[5] = target: B7-H1 (Mus musculus, UniProt Q9EP73); assay: as above
B7-H1, sequence (Q9EP73 19-290 limits assumed): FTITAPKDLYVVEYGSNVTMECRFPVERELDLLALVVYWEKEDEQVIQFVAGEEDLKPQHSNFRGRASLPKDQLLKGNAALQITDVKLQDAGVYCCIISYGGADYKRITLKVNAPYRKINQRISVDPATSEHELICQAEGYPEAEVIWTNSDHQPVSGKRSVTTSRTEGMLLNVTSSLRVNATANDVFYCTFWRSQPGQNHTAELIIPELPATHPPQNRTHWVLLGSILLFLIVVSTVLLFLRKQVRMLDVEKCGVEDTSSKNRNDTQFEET

[6] = target: T4, B7-DC (Mus musculus, UniProt Q9WUL5); assay: as above
T4 sequence (membrane protein, looked up): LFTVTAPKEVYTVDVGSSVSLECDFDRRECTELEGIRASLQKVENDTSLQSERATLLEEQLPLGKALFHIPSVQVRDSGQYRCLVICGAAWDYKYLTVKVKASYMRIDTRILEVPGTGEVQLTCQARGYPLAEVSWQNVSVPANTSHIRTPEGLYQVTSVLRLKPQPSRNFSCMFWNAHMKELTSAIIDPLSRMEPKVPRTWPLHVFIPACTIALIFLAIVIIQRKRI

[7] = target: T5, CD28 (Mus musculus, UniProt P31041); assay: as above
T5 sequence (membrane protein, looked up): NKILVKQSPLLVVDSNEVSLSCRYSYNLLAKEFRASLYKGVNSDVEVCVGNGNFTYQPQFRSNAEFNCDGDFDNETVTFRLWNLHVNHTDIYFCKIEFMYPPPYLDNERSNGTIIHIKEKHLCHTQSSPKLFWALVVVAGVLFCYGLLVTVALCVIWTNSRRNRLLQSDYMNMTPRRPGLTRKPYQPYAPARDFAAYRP

[8] = target: CTLA-4 (Mus musculus, UniProt P09793); assay: as above
[9] = target: T6, PD-1 (Mus musculus, UniProt Q02242); assay: as above
T6 sequence (membrane protein, looked up): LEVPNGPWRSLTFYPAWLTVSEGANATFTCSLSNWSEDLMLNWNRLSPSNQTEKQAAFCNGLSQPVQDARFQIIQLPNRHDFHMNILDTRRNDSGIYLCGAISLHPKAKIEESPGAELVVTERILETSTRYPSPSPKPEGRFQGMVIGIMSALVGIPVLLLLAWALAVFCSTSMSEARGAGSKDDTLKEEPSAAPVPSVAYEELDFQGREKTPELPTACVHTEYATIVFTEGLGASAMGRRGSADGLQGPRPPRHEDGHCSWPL

[10] = target: T7, ICOS (Mus musculus, UniProt Q9WVS0); assay: as above
T7 sequence (membrane protein, looked up): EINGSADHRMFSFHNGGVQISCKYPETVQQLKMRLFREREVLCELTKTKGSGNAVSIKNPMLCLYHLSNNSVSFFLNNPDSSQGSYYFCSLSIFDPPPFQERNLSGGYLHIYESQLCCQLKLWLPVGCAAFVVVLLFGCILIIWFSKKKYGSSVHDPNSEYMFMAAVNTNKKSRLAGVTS

[11] = target: T8, mouse B7-H2, full length, expressed on 293T cells (mouse, UniProt Q9JHJ8 44-322); assay: as above
T8 construct: whole, on cells
T8 sequence (looked up): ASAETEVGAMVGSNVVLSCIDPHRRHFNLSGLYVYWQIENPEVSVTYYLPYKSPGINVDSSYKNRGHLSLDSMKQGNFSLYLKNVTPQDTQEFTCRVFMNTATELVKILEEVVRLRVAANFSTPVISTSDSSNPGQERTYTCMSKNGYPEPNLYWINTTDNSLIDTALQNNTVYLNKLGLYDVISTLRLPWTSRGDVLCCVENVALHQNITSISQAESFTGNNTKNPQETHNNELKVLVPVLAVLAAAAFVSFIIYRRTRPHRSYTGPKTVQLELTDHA

[12] = target: T9, human B7-H2, full length, expressed on cells (B7-H2+293T cells) (human, UniProt O75144 19-302); assay: CDS well image, 293T cells transfected with the human gene, stained with the human fusion protein
T9 construct: This id also stands for endogenous B7-H2 on monocyte-derived dendritic cells in the functional rows; also called ICOSL; ICOSLG
T9 sequence: T1 sequence (chain, by the resolver, C terminal GFP fusion, not carried in the letters) with A43T

[13] = target: T10, human B7-2 (CD86, B70) expressed on 293T cells (human, UniProt P42081 24-329); assay: as above
T10 construct: whole, on cells
T10 sequence (looked up): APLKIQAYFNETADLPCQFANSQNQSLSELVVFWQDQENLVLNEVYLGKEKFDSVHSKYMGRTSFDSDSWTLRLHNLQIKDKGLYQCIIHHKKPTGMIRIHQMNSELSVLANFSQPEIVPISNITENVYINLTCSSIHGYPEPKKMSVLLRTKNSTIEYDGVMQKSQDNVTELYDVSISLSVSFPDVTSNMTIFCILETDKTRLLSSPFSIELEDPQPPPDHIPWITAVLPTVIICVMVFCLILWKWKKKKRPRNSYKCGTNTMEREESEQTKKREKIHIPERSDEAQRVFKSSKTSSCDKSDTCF

[14] = target: T11, human B7-H1 expressed on 293T cells (human, UniProt Q9NZQ7 19-290); assay: as above
T11 construct: whole, on cells
T11 sequence (Q9NZQ7 19-290): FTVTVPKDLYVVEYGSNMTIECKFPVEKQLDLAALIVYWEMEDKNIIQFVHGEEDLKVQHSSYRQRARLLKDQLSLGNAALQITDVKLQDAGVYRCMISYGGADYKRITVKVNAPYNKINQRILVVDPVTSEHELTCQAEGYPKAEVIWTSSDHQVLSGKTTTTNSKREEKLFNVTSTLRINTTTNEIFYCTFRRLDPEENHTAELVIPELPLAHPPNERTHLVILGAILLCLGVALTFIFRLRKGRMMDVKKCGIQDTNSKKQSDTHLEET

[15] = target: T12, human B7-DC expressed on 293T cells (human, UniProt Q9BQ51 20-273); assay: as above
T12 construct: whole, on cells
T12 sequence (looked up): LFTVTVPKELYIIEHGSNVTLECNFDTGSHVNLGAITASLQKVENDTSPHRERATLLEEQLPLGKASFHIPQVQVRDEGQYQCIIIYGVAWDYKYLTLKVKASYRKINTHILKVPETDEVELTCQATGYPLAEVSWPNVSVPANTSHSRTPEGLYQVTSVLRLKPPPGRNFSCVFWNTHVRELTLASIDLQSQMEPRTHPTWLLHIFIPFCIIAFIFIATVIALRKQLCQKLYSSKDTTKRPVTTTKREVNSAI

[16] = target: T13, human CD28, full length, expressed on cells (CD28+293T cells) (human, UniProt P10747 19-220); assay: as above
T13 construct: This id also stands for CD28 on purified human T cells in the functional rows; also called CD28+ cells
T13 sequence (P10747 19-220): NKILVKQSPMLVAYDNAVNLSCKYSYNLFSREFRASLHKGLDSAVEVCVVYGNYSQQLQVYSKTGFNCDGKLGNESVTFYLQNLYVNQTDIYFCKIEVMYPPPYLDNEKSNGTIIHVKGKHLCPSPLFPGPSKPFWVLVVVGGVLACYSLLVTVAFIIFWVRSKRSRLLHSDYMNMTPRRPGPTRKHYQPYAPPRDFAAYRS

[17] = target: T14, human B7-1 (CD80) expressed on 293T cells (human, UniProt P33681 35-288); assay: as above
T14 construct: whole, on cells
T14 sequence (looked up): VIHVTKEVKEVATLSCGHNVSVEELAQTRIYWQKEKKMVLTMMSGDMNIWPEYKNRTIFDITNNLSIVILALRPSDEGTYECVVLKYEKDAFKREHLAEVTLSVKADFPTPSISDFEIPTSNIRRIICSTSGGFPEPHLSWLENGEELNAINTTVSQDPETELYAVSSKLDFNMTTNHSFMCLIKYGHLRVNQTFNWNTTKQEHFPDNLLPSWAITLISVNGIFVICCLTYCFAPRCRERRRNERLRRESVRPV

human CD28, full length, expressed on cells (CD28+293T cells) (human), sequence (P10747 19-220): as the sequence (P10747 19-220) above

Molecule: mouse anti-human CD28 mAb CD28.6 (blocking) (antibody)
- tetanus toxoid-elicited proliferation of memory T cells; inhibition [1]: > 50%

- Binding Percentage% [2]: 32.1%
Molecule: human CTLA4Ig fusion protein (from UniProt P16410 37-162) (Fc fusion)

B1: B7-2Ig (Fc fusion)
chain: VSVETQAYFNGTAYLPCPFTKAQNISLSELVVFWQDQQKLVLYEHYLGTEKLDSVNAKYLGRTSFDRNNWTLRLHNVQIKDMGSYDCFIQKKPPTGSIILQQTLTELSVIANFSEPEIKLAQNVTGNSGINLTCTSKQGHPKPKKMYFLITNSTNEYGDNMQISQDNVTELFSISNSLSLSFPDGVWHMTVVCVLETESMKISSKPLNFTQEFPSPQTYWK
notes: also called mouse B7-2Ig fusion protein; not shown: Ig (Fc) part and any linker of the R&D Systems fusion protein
- binding result [3]: no binding
- binding result [4]: no binding
- binding result [5]: no binding
- binding result [6]: no binding
- binding result [7]: binds
- binding result [8]: binds
- binding result [9]: no binding
- binding result [10]: no binding
- binding result [11]: no binding

- binding result [12]: no binding
- binding result [13]: no binding
- binding result [14]: no binding
- binding result [15]: no binding
- binding result [16]: no binding
- binding result [17]: no binding
B2: B7-DCIg (Fc fusion, Homo sapiens, UniProt Q9BQ51 20-219, looked up)
fusion protein: LFTVTVPKELYIIEHGSNVTLECNFDTGSHVNLGAITASLQKVENDTSPHRERATLLEEQLPLGKASFHIPQVQVRDEGQYQCIIIYGVAWDYKYLTLKVKASYRKINTHILKVPETDEVELTCQATGYPLAEVSWPNVSVPANTSHSRTPEGLYQVTSVLRLKPPPGRNFSCVFWNTHVRELTLASIDLQSQMEPRTHP
notes: Ig fusion protein purchased from R&D systems; also called human B7-DCIg fusion protein

B3: B7-1Ig (Fc fusion)
chain: VDEQLSKSVKDKVLLPCRYNSPHEDESEDRIYWQKHDKVVLSVIAGKLKVWPEYKNRTLYDNTTYSLIILGLVLSDRGTYSCVVQKKERGTYEVKHLALVKLSIKADFSTPNITESGNPSADTKRITCFASGGFPKPRFSWLENGRELPGINTTISQDPESELYTISSQLDFNTTRNHTIKCLIKYGDAHVSEDFTWEKPPEDPPDSKN
notes: also called mouse B7-1Ig fusion protein; not shown: Ig (Fc) part and any linker of the R&D Systems fusion protein
- binding result [3]: no binding
- binding result [4]: no binding
- binding result [6]: no binding
- binding result [9]: no binding
- binding result [10]: no binding
- binding result [11]: no binding
